Legend:
HeLa Kyoto [1] = assay: solubility change mitosis vs G1/S (difference of NP-40 vs SDS log2 ratios) (log2 ratio difference); higher = more soluble in mitosis
HeLa Kyoto [2] = assay: solubility in G1/S (NP-40 vs SDS abundance) (log2 ratio); higher = more soluble; settings: cell cycle stage: G1/S
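Throughout, for solubility change mitosis vs G1/S (difference of NP-40 vs SDS log2 ratios): synchronized HeLa Kyoto cells (double thymidine block for G1/S, nocodazole release for mitosis), protein amounts in NP-40 versus SDS lysates quantified by mass spectrometry, three biological replicates.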
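Throughout, for solubility in G1/S (NP-40 vs SDS abundance): HeLa Kyoto cells arrested at G1/S by double thymidine block, proteins quantified by TMT10plex mass spectrometry in mild NP-40 versus SDS extracts, three biological replicates.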

Sequence of DGKZ (chain, as listed by the source): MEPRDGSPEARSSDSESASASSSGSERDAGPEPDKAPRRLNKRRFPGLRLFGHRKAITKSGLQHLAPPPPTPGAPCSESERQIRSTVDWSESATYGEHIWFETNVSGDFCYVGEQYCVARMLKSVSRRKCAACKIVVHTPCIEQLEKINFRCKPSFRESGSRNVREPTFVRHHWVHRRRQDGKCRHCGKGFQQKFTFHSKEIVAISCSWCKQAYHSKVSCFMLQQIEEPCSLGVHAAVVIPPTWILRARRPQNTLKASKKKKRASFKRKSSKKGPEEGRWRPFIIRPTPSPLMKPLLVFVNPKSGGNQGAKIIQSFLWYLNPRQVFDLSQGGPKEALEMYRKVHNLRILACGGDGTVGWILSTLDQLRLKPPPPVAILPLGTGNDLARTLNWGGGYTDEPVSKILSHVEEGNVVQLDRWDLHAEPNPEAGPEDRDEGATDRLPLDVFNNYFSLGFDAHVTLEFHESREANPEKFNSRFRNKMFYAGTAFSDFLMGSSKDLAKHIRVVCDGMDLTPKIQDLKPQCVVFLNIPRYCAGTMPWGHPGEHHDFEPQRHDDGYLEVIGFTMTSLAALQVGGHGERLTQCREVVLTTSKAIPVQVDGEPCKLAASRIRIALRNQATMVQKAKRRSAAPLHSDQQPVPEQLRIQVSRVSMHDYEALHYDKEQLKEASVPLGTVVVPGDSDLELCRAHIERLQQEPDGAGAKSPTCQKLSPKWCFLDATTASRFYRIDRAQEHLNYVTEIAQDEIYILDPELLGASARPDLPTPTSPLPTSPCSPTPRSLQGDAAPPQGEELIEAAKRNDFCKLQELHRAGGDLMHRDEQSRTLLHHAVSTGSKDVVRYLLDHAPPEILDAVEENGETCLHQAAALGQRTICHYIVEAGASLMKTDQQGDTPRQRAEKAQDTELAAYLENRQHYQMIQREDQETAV

Substance	solubility change mitosis (log2) (HeLa Kyoto [1])	solubility in G1/S (log2) (HeLa Kyoto [2])
MEKSWMLWNFVERWLIALASWSWALCRISLLPLIVTFHLYGGIILLLLIFISIAGILYKFQDVLLYFPEQPSSSRLYVPMPTGIPHENIFIRTKDGIRLNLILIRYTGDNSPYSPTIIYFHGNAGNIGHRLPNALLMLVNLKVNLLLVDYRGYGKSEGEASEEGLYLDSEAVLDYVMTRPDLDKTKIFLFGRSLGGAVAIHLASENSHRISAIMVENTFLSIPHMASTLFSFFPMRYLPLWCYKNKFLSYRKISQCRMPSLFISGLSDQLIPPVMMKQLYELSPSRTKRLAIFPDGTHNDTWQCQGYFTALEQFIKEVVKSHSPEEMAKTSSNVTII [ABHD13]	-0.176	-0.091
DGKZ	0.323	0.0613
MGMACLTMTEMEGTSTSSIYQNGDISGNANSMKQIDPVLQVYLYHSLGKSEADYLTFPSGEYVAEEICIAASKACGITPVYHNMFALMSETERIWYPPNHVFHIDESTRHNVLYRIRFYFPRWYCSGSNRAYRHGISRGAEAPLLDDFVMSYLFAQWRHDFVHGWIKVPVTHETQEECLGMAVLDMMRIAKENDQTPLAIYNSISYKTFLPKCIRAKIQDYHILTRKRIRYRFRRFIQQFSQCKATARNLKLKYLINLETLQSAFYTEKFEVKEPGSGPSGEEIFATIIITGNGGIQWSRGKHKESETLTEQDLQLYCDFPNIIDVSIKQANQEGSNESRVVTIHKQDGKNLEIELSSLREALSFVSLIDGYYRLTADAHHYLCKEVAPPAVLENIQSNCHGPISMDFAISKLKKAGNQTGLYVLRCSPKDFNKYFLTFAVERENVIEYKHCLITKNENEEYNLSGTKKNFSSLKDLLNCYQMETVRSDNIIFQFTKCCPPKPKDKSNLLVFRTNGVSDVPTSPTLQRPTHMNQMVFHKIRNEDLIFNESLGQGTFTKIFKGVRREVGDYGQLHETEVLLKVLDKAHRNYSESFFEAASMMSKLSHKHLVLNYGVCVCGDENILVQEFVKFGSLDTYLKKNKNCINILWKLEVAKQLAWAMHFLEENTLIHGNVCAKNILLIREEDRKTGNPPFIKLSDPGISITVLPKDILQERIPWVPPECIENPKNLNLATDKWSFGTTLWEICSGGDKPLSALDSQRKLQFYEDRHQLPAPKWAELANLINNCMDYEPDFRPSFRAIIRDLNSLFTPDYELLTENDMLPNMRIGALGFSGAFEDRDPTQFEERHLKFLQQLGKGNFGSVEMCRYDPLQDNTGEVVAVKKLQHSTEEHLRDFEREIEILKSLQHDNIVKYKGVCYSAGRRNLKLIMEYLPYGSLRDYLQKHKERIDHIKLLQYTSQICKGMEYLGTKRYIHRDLATRNILVENENRVKIGDFGLTKVLPQDKEYYKVKEPGESPIFWYAPESLTESKFSVASDVWSFGVVLYELFTYIEKSKSPPAEFMRMIGNDKQGQMIVFHLIELLKNNGRLPRPDGCPDEIYMIMTECWNNNVNQRPSFRDLALRVDQIRDNMAG [JAK2]	0.0233	-0.224
CENPE	-0.1	-0.0612
MAVLGVQLVVTLLTATLMHRLAPHCSFARWLLCNGSLFRYKHPSEEELRALAGKPRPRGRKERWANGLSEEKPLSVPRDAPFQLETCPLTTVDALVLRFFLEYQWFVDFAVYSGGVYLFTEAYYYMLGPAKETNIAVFWCLLTVTFSIKMFLTVTRLYFSAEEGGERSVCLTFAFLFLLLAMLVQVVREETLELGLEPGLASMTQNLEPLLKKQGWDWALPVAKLAIRVGLAVVGSVLGAFLTFPGLRLAQTHRDALTMSEDRPMLQFLLHTSFLSPLFILWLWTKPIARDFLHQPPFGETRFSLLSDSAFDSGRLWLLVVLCLLRLAVTRPHLQAYLCLAKARVEQLRREAGRIEAREIQQRVVRVYCYVTVVSLQYLTPLILTLNCTLLLKTLGGYSWGLGPAPLLSPDPSSASAAPIGSGEDEVQQTAARIAGALGGLLTPLFLRGVLAYLIWWTAACQLLASLFGLYFHQHLAGS [TMEM161A]	-0.0501	-0.184
MYRSGERLLGSHALPAEQRDFLPLETTNNNNNHHQPGAWARRAGSSASSPPSASSSPHPSAAVPAADPADSASGSSNKRKRDNKASGGRAAGGGRADGGGVVYSGTPWKRRNYNQGVVGLHEEISDFYEYMSPRPEEEKMRMEVVNRIESVIKELWPSADVQIFGSFKTGLYLPTSDIDLVVFGKWENLPLWTLEEALRKHKVADEDSVKVLDKATVPIIKLTDSFTEVKVDISFNVQNGVRAADLIKDFTKKYPVLPYLVLVLKQFLLQRDLNEVFTGGIGSYSLFLMAVSFLQLHPREDACIPNTNYGVLLIEFFELYGRHFNYLKTGIRIKDGGSYVAKDEVQKNMLDGYRPSMLYIEDPLQPGNDVGRSSYGAMQVKQAFDYAYVVLSHAVSPIAKYYPNNETESILGRIIRVTDEVATYRDWISKQWGLKNRPEPSCNGPVSSSSATQSSSSDVDSDATPCKTPKQLLCRPSTGNRVGSQDVSLESSQAVGKMQSTQTTNTSNSTNKSQHGSARLFRSSSKGFQGTTQTSHGSLMTNKQHQGKSNNQYYHGKKRKHKRDAPLSDLCR [PAPD5]	0.189	-0.654
MELPAVNLKVILLGHWLLTTWGCIVFSGSYAWANFTILALGVWAVAQRDSIDAISMFLGGLLATIFLDIVHISIFYPRVSLTDTGRFGVGMAILSLLLKPLSCCFVYHMYRERGGELLVHTGFLGSSQDRSAYQTIDSAEAPADPFAVPEGRSQDARGY [AGTRAP]	-0.217	0.0387
MALKAEGAALDCFEVTLKCEEGEDEEEAMVVAVIPRPEPMLRVTQQEKTPPPRPSPLEAGSDGCEEPKQQVSWEQEFLVGSSPGGSGRALCMVCGAEIRAPSADTARSHILEQHPHTLDLSPSEKSNILEAWSEGVALLQDVRAEQPSPPNSDSGQDAHPDPDANPDAARMPAEIVVLLDSEDNPSLPKRSRPRGLRPLELPAVPATEPGNKKPRGQRWKEPPGEEPVRKKRGRPMTKNLDPDPEPPSPDSPTETFAAPAEVRHFTDGSFPAGFVLQLFSHTQLRGPDSKDSPKDREVAEGGLPRAESPSPAPPPGLRGTLDLQVIRVRMEEPPAVSLLQDWSRHPQGTKRVGAGDTSDWPTVLSESSTTVAGKPEKGNGV [C11ORF84]	0.023	0.38
MEKRLQEAQLYKEEGNQRYREGKYRDAVSRYHRALLQLRGLDPSLPSPLPNLGPQGPALTPEQENILHTTQTDCYNNLAACLLQMEPVNYERVREYSQKVLERQPDNAKALYRAGVAFFHLQDYDQARHYLLAAVNRQPKDANVRRYLQLTQSELSSYHRKEKQLYLGMFG [TTC9C]	0.459	0.247
MQLEIQVALNFIISYLYNKLPRRRVNIFGEELERLLKKKYEGHWYPEKPYKGSGFRCIHIGEKVDPVIEQASKESGLDIDDVRGNLPQDLSVWIDPFEVSYQIGEKGPVKVLYVDDNNENGCELDKEIKNSFNPEAQVFMPISDPASSVSSSPSPPFGHSAAVSPTFMPRSTQPLTFTTATFAATKFGSTKMKNSGRSNKVARTSPINLGLNVNDLLKQKAISSSMHSLYGLGLGSQQQPQQQQQPAQPPPPPPPPQQQQQQKTSALSPNAKEFIFPNMQGQGSSTNGMFPGDSPLNLSPLQYSNAFDVFAAYGGLNEKSFVDGLNFSLNNMQYSNQQFQPVMAN [TOB1]	-0.114	0.14
MGLEDEQKMLTESGDPEEEEEEEEELVDPLTTVREQCEQLEKCVKARERLELCDERVSSRSHTEEDCTEELFDFLHARDHCVAHKLFNNLK [UQCRH]	0.641	-0.528

From the supplement of paper PMC5998384
